Reference: patent US20150246947A1 (BAXALTA, published 2015)
Like-named read-outs stand apart in the source and are kept apart here.

T1: human Protein S (human, UniProt P07225 42-676)
T1 construct: Called 'full length Protein S' / 'human full-length Protein S'; It was coated on plates (ELISA), Eu-labeled (LANCE) or immobilized on a chip (Biacore); also called PS; full length Protein S
T1 sequence: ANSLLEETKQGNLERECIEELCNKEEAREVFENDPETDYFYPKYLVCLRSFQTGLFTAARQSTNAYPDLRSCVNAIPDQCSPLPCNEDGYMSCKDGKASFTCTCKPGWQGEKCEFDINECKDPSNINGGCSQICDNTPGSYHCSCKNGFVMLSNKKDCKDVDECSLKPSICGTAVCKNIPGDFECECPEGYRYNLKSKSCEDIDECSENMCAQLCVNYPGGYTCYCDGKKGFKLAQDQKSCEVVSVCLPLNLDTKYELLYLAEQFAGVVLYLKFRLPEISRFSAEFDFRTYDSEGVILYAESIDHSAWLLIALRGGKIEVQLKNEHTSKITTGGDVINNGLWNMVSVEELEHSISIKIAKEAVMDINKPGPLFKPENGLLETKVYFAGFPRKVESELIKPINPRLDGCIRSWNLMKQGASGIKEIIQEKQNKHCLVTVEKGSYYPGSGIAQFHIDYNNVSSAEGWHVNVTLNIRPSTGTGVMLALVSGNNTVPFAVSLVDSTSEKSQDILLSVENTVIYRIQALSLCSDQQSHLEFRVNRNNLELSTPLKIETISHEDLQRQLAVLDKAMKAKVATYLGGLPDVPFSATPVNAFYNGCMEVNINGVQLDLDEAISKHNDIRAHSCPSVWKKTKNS

T2: human Protein S (UniProt P07225 42-676)
T2 chain: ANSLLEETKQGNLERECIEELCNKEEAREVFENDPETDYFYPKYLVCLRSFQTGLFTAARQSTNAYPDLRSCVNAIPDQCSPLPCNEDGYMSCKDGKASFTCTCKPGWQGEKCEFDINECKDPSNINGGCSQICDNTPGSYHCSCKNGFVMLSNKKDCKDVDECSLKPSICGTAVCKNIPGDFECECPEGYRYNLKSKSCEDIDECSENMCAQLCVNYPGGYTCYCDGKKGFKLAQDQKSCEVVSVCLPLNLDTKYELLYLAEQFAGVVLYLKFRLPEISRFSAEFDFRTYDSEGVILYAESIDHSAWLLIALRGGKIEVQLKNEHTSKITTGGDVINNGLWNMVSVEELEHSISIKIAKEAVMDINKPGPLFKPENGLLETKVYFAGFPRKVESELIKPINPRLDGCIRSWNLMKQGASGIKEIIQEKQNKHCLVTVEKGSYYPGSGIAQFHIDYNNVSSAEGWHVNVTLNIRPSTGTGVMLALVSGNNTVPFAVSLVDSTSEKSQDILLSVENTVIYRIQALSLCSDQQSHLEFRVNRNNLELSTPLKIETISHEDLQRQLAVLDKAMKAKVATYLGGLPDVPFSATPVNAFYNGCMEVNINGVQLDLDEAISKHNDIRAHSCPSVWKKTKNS

B1: JBS3306 (peptide)
peptide: Ac-HWYVSAGWYDYNEDKYYEFE-NH2
B2: JBS2592 (peptide)
peptide: Ac-TGKVSAGWYDYNFDHYREFT-NH2
B3: JBS3321 (peptide)
peptide: Ac-EYYVSAGWYDYNTDTYYEFEC-NH2
modifications: not fully specified (residue 21)
notes: Tetramer of JBS3319 monomers with a four arm 10 kD PEG moiety
B4: JBS2661 (peptide)
peptide: Ac-TGHVSAGWYDYNFDSYREFT-NH2
B5: JBS2612 (peptide)
chain: Ac-TGFVSAGWYDYNFDHYREFT-NH2
B6: JBS2552 (peptide)
peptide: Ac-GGHVSAGWYDYNFDHYREFT-NH2
B7: JBS2512 (peptide)
peptide: Ac-TGHVSAGWYDYNFDHYREFT-NH2
B8: JBS2676 (peptide)
chain: Ac-GGHVSAGWYDYNKDHYREFT-NH2
B9: JBS2649 (peptide)
chain: Ac-TSHVSAGWYDYNFDHYREFT-NH2
B10: JBS2546 (peptide)
peptide: Ac-TGHVSAGWYDYNFDDYREFT-NH2
B11: JBS2845 (peptide)
chain: Ac-TGLVSAGWYDNNFDHYREFT-NH2
B12: JBS2625 (peptide)
peptide: Ac-TGHVSAGWYDYNFDHYFEFT-NH2
B13: JBS2602 (peptide)
peptide: Ac-TGHVSAGWYDYNKDHYREFT-NH2
B14: JBS2516 (peptide)
peptide: Ac-TAHVSAGWYDYNFDHYREFT-NH2
B15: JBS3283 (peptide)
peptide: Ac-AIYVTAGWYDYNNDTYYEFT-NH2
B16: JBS2586 (peptide)
peptide: Ac-TGHVSAGWYDYNFDHYLEFT-NH2
B17: JBS2788 (peptide)
chain: Ac-TGLVSAGWYDYNFDIYREFT-NH2
B18: JBS2623 (peptide)
chain: Ac-TGHVSAGWYDYNFDFYREFT-NH2
B19: JBS2582 (peptide)
peptide: Ac-TGHVSAGWYDYNLDHYREFT-NH2
B20: JBS2887 (peptide)
chain: Ac-TGLVSAGWYDYNFDHYTEFT-NH2
B21: JBS2528 (peptide)
peptide: Ac-TGHVSAGWYDYNFDAYREFT-NH2
B22: JBS2570 (peptide)
chain: Ac-LGHVSAGWYDYNFDHYREFT-NH2
B23: JBS2750 (peptide)
chain: Ac-TGLVSAGWYDYNFDEYREFT-NH2
B24: JBS2648 (peptide)
chain: Ac-SGHVSAGWYDYNFDHYREFT-NH2
B25: JBS3263 (peptide)
peptide: Ac-EYIVTAGWYDYNKDIYYEFK-NH2
B26: JBS2526 (peptide)
peptide: Ac-TGHVSAGWYDYNADHYREFT-NH2
B27: JBS2591 (peptide)
peptide: Ac-TKHVSAGWYDYNFDHYREFT-NH2
B28: JBS2584 (peptide)
peptide: Ac-TGHVSAGWYDYNFDLYREFT-NH2
B29: JBS2604 (peptide)
peptide: Ac-TGHVSAGWYDYNFDKYREFT-NH2
B30: JBS2629 (peptide)
peptide: Ac-TPHVSAGWYDYNFDHYREFT-NH2
B31: JBS2924 (peptide)
chain: Ac-TGLVSAGWYDYNFDHYWEFT-NH2
B32: JBS2645 (peptide)
chain: Ac-TGHVSAGWYDYNFDHYRPFT-NH2
B33: JBS2905 (peptide)
chain: Ac-TGLVSAGWYDYNFDHYVEFT-NH2
B34: JBS2590 (peptide)
chain: Ac-KGHVSAGWYDYNFDHYREFT-NH2
B35: JBS2790 (peptide)
chain: Ac-TGLVSAGWYDYNFDHYIEFT-NH2

Tests used:
human Protein S [1] = target: T1, human Protein S; assay: Biacore (SPR), Protein S immobilized
Procedure, shortened: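 Surface plasmon resonance was used to measure peptide binding kinetics to human full-length Protein S, and Kd was calculated from the kon and koff obtained by Langmuir model fits of the sensorgrams. The protein was immobilized at 1000 RU on a […] chip in a Biacore 3000 or Biacore T200. Peptides were injected at various concentrations in HBS-buffer with 3 mM CaCl₂ and 1% DMSO, and the chip was regenerated using 4 M MgCl₂ in HBS-buffer.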

human Protein S [2] = target: T2, human Protein S; assay: LANCE competition
Procedure, shortened: (§1)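 This homogeneous time-resolved FRET competition assay (LANCE) used europium-labelled Protein S, ULight-labelled streptavidin and a biotinylated tracer peptide, with unlabelled test peptide titrated in three-fold steps. Final concentrations were 10 nM Protein S, 100 nM streptavidin and 300 nM tracer in 50 µl (or 2 nM Protein S and 60 nM tracer on a Tecan F500). Samples were incubated 1 hour at room temperature and read at Ex 340 nm, Em 665 nm. IC50 came from non-linear regression of the 665 nm signals.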

human Protein S [3] = target: T1, human Protein S; assay: cell-based or functional assay
human Protein S [4] = target: T2, human Protein S; assay: LANCE competition
Procedure, shortened: as §1

human Protein S [5] = target: T1, human Protein S; assay: competition ELISA; Protein S coated; competitor biotinylated tracer JBS0684
Protocol: The competition (IC50) ELISA was performed using biotinylated tracer peptide JBS0684 to compete for Protein S-binding with candidate peptides. Peptides that compete with the tracer bind the same region of Protein S as the tracer (and each other). Ninety-six well PolySorp plates (Nunc) were coated with 3 μg/mL Protein S in coating buffer (15 mM Na₂CO₃, 35 mM NaHCO₃, pH 9.6) over night. […] Plates were then washed three times with HNaT. JBS0684 was applied at a concentration corresponding to the EC90 value determined in the binding ELISA. A competitor stock solution of peptide (10 mM) was diluted 1/33.3 in HNaT without HSA, and a serial 1/3 dilution was prepared with HNaT with 3% DMSO. The dilution was further diluted with the biotinylated tracer peptide in a ratio of 1:6 (20 μl competitor dilution and 100 μl tracer peptide). The mixture of competitor and tracer peptide was applied to the Protein S-coated microtiter plate and incubated for 1.5 hours. The plates were washed three times with HNaT. Peptide-Protein S binding was detected by applying HRP-conjugated streptavidin to the microtiter plate, incubating the mixture for one hour, washing the plate three times with HNaT, applying TMB (3,3′5,5′-Tetramethylbenzidin), and detecting the subsequent chromogenic conversion of TMB by HRP. IC50 measurements of peptides are provided herein (see, e.g., Table 3).

Binder | CAT EC50 (human Protein S [3]) | IC50 (human Protein S [4]) | IC50 (human Protein S [5]) | other results
B1 | – | – | – | Kd (human Protein S [1]): 0.4 nM; koff (human Protein S [1]): 0.000402 s⁻¹; kon (human Protein S [1]): 1e+06 M⁻¹ s⁻¹; IC50 (human Protein S [2]): 0.8 nM
B2 | 68 nM | 20 nM | 5.6 nM | –
B3 | – | – | – | Kd (human Protein S [1]): 0.02 nM; koff (human Protein S [1]): 3.88e-05 s⁻¹; kon (human Protein S [1]): 1.58e+06 M⁻¹ s⁻¹; IC50 (human Protein S [2]): 0.7 nM
B4 | 16 nM | 7.8 nM | 2.8 nM | –
B5 | – | 17 nM | – | –
B6 | 24 nM | 16.6 nM | 5.5 nM | –
B7 | 24 nM | 21.5 nM | 3.9 nM | –
B8 | – | 11.6 nM | – | –
B9 | – | 31.8 nM | – | –
B10 | 30 nM | 31 nM | 6.8 nM | –
B11 | – | 8.4 nM | – | –
B12 | 29 nM | 6.6 nM | 1.6 nM | –
B13 | 30 nM | 10.9 nM | 3.4 nM | –
B14 | 21 nM | 9.9 nM | 3.3 nM | –
B15 | – | – | – | Kd (human Protein S [1]): 0.4 nM; koff (human Protein S [1]): 0.000322 s⁻¹; kon (human Protein S [1]): 735000 M⁻¹ s⁻¹; IC50 (human Protein S [2]): 0.9 nM
B16 | 19 nM | 11 nM | 2.6 nM | –
B17 | – | 2.2 nM | – | –
B18 | – | 15.1 nM | – | –

Binder | CAT EC50 (human Protein S [3]) | IC50 (human Protein S [4]) | IC50 (human Protein S [5]) | other results
B19 | 15 nM | 7.4 nM | 2.3 nM | –
B20 | – | 4 nM | – | –
B21 | 23 nM | 18.8 nM | 5.2 nM | –
B22 | – | 18.8 nM | – | –
B23 | – | 3.6 nM | – | –
B24 | – | 18.6 nM | – | –
B25 | – | – | – | Kd (human Protein S [1]): 0.4 nM; koff (human Protein S [1]): 0.000264 s⁻¹; kon (human Protein S [1]): 629000 M⁻¹ s⁻¹; IC50 (human Protein S [2]): 1.2 nM
B26 | 19 nM | – | 3.6 nM | –
B27 | – | – | 4.2 nM | –
B28 | 9 nM | – | 2.7 nM | –
B29 | 19 nM | – | 4.1 nM | –
B30 | 25 nM | – | 3.1 nM | –
B31 | – | 3.6 nM | – | –
B32 | – | 9.4 nM | – | –
B33 | – | 5.9 nM | – | –
B34 | – | 11.4 nM | – | –
B35 | – | 3.4 nM | – | –
